Assay results reported in US20170281764A1 (JN BIOSCIENCES, published 2017).

Experiments:
[1] = target: T1, human TIGIT on cells (Jurkat-TIGIT cells; human T cells, NK cells and other blood cells) (human, UniProt Q495A1 22-244); experiment: cell-based or functional assay
T1 sequence: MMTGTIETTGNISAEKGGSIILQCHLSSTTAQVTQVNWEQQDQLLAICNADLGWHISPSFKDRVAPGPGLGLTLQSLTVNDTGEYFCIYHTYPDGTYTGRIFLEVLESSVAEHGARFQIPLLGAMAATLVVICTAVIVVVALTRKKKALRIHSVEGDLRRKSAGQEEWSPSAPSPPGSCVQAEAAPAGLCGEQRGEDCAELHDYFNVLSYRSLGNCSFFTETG

[2] = target: T2, extracellular region of human TIGIT fused to FLAG and GPI (hTIGIT-GPI), on the surface of NS0 cells (human); experiment: flow cytometry on NS0-hTIGIT cells
T2 construct: The GPI signal is processed when the anchor is attached; also called NS0-hTIGIT cells
T2 chain: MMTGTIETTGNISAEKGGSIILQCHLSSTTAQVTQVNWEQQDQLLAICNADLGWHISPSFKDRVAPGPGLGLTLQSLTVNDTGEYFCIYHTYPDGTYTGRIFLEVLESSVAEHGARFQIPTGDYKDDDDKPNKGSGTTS
Procedure: Binding of HuTIG1-IgG1.AA to human TIGIT was also examined by flow cytometry. NS0-hTIGIT cells (8×10⁵ cells) were incubated in 160 μl of FACS Buffer (PBS containing 0.5% bovine serum albumin and 0.05% sodium azide) in the presence (or absence) of various concentrations of HuTIG1-IgG1.AA, starting at 10 μg/ml and serial 2-fold dilutions, for 20 min at 4° C. After washing with FACS Buffer, HuTIG1-IgG1.AA binding on NS0-hTIGIT cells were detected with PE-labeled goat anti-human IgG antibody in FACS Buffer. After incubation for 20 min and washing with FACS Buffer, the cells were subjected to flow cytometry using a FACScan flow cytometer (BD Biosciences, San Jose, Calif.) to obtain the mean channel fluorescence (MCF) at each antibody concentration. […] The EC₅₀ value was 60 ng/ml.

[3] = target: T2, extracellular region of human TIGIT …; experiment: flow cytometry, competition with hCD155-Fc-FITC (125 ng/ml) for NS0-hTIGIT cells
Procedure: The activity of HuTIG1-IgG1.AA to block the interaction between human TIGIT and human CD155 was analyzed by flow cytometry using NS0-hTIGIT cells. […] After washing with FACS Buffer, NS0-hTIGIT cells were subjected to flow cytometry using a FACScan flow cytometer (BD Biosciences, San Jose, Calif.). To examine the binding of hCD155-Fc-FITC on the cells, MCF was obtained at each antibody concentration. […] The half maximal inhibitory concentration (IC₅₀) of HuTIG1-IgG1.AA to block the TIGIT-CD155 interaction was 67 ng/ml.

[4] = target: T3, HA-tagged human TIGIT, wild type, transiently expressed on CHO-K1 cells (human, UniProt Q495A1 22-244); experiment: flow cytometry on CHO-K1 cells transiently expressing HA-tagged human TIGIT; wild type TIGIT
T3 sequence: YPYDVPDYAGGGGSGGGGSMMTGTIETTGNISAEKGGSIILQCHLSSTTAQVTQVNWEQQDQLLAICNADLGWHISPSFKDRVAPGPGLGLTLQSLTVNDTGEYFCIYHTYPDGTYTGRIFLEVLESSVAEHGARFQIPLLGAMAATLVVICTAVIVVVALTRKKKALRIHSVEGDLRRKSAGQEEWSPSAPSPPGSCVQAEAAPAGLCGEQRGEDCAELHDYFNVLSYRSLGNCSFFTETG
Procedure: For flow cytometry analysis of the anti-hTIGIT antibody binding epitope, HA-tagged human TIGIT proteins with or without single amino acid mutation were transiently transfected into CHO-K1 cells. After 24 hr, transfected cells were suspended in HBSS buffer (Thermo Fisher Scientific, Cat#14175095), and incubated with HuTIG1-IgG1.AA antibody at varying concentrations in 50 μL volume. After 1 hr incubation at 4° C., cells were washed and a second incubation with 50 μL Alexa488 conjugated anti-human IgG(H+L) secondary antibody (Thermo Fisher Scientific, Cat#A-11013) was performed to detect cells bound by antibody. Cells were incubated with an anti-HA antibody (Sigma, Cat# H7411) as a positive control, and non-transfected CHO-K1 cells were used as a negative control. The cells were analyzed on an Attune NxT Cytometer (Thermo Fisher Scientific) and the data were processed using FlowJo software. For each mutant, the saturating antibody binding MFI (mean fluorescence intensity) were normalized to 100% POC (percent of control), and no primary antibody binding control MFI were normalized to 0% POC. Data were then fit to a four parameter non-linear sigmoidal curve using GraphPad Prism 7 curve fitting using following formula: Y=Bottom+(Top−Bottom)/(1+10^{((Log EC}^₅₀^{-X)*HillSlope)}). […]

I88A = target: T4, I88A; experiment: flow cytometry titration on CHO-K1 cells transiently expressing the HA-tagged TIGIT mutant, Alexa488 anti-human IgG detection, four-parameter fit of percent of control, nM is from the concentration axis and paragraph 252
T4 construct: also called HA-tagged human TIGIT with mutation I88A, on CHO-K1 cells
T4 single chain: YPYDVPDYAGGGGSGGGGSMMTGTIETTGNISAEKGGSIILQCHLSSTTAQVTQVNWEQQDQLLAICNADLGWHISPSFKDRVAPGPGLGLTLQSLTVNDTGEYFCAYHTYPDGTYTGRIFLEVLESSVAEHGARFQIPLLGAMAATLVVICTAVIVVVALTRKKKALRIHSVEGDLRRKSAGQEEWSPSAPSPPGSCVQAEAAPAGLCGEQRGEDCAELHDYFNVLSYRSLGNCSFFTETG
Procedure: (§1) For flow cytometry analysis of the anti-hTIGIT antibody binding epitope, HA-tagged human TIGIT proteins with or without single amino acid mutation were transiently transfected into CHO-K1 cells. After 24 hr, transfected cells were suspended in HBSS buffer (Thermo Fisher Scientific, Cat#14175095), and incubated with HuTIG1-IgG1.AA antibody at varying concentrations in 50 μL volume. After 1 hr incubation at 4° C., cells were washed and a second incubation with 50 μL Alexa488 conjugated anti-human IgG(H+L) secondary antibody (Thermo Fisher Scientific, Cat#A-11013) was performed to detect cells bound by antibody. Cells were incubated with an anti-HA antibody (Sigma, Cat# H7411) as a positive control, and non-transfected CHO-K1 cells were used as a negative control. The cells were analyzed on an Attune NxT Cytometer (Thermo Fisher Scientific) and the data were processed using FlowJo software. For each mutant, the saturating antibody binding MFI (mean fluorescence intensity) were normalized to 100% POC (percent of control), and no primary antibody binding control MFI were normalized to 0% POC. Data were then fit to a four parameter non-linear sigmoidal curve using GraphPad Prism 7 curve fitting using following formula: Y=Bottom+(Top−Bottom)/(1+10^{((Log EC}^₅₀^{-X)*HillSlope)}).
(§2) All of these residues co-locate to one discrete region on the front ([…] structure of the TIGIT IgV extracellular domain (FIG. 28).

T34A = target: T5, T34A; experiment: as above
T5 construct: also called HA-tagged human TIGIT with mutation T34A, on CHO-K1 cells
T5 single chain: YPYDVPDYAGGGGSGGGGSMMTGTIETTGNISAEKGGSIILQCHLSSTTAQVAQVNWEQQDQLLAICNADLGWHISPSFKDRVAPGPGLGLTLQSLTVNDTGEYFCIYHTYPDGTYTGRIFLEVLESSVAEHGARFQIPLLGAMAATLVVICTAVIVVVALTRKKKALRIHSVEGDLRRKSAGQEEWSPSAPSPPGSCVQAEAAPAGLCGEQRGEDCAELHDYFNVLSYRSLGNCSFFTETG
Procedure: as §1, §2

B1: HuTIG1-IgG1.AA (humanized IgG1/kappa form of TIG1, L234A/L235A) (antibody)
heavy: not shown
light: DIQMTQSPSSLSASVGDRVTITCRASKSISKYLAWYQQKPGKAPKLLIYSGSTLQSGVPSRFSGSGSGTDFTLTISSLQPEDFATYYCQQHNEYPWTFGGGTKVEIKRTVAAPSVFIFPPSDEQLKSGTASVVCLLNNFYPREAKVQWKVDNALQSGNSQESVTEQDSKDSTYSLSSTLTLSKADYEKHKVYACEVTHQGLSSPVTKSFNRGEC
notes: Mature full chains; also called humanized TIG1
increase of K562 target cell killing by purified NK cells, 10 µg/ml antibody, relative to 'No Antibody' or Rituxan [1]: 28% | EC50 [2]: 0.06 mg/L | IC50 [3]: 0.067 mg/L | EC50 [4]: 1.28 nM | EC50 (I88A): 0.591 nM | EC50 (T34A): 0.577 nM
